Measured values: PMC10450190, “RIG-I recognizes metabolite-capped RNAs as signaling ligands”

T1: RIG-I (UniProt O95786 1-925)
T1 sequence: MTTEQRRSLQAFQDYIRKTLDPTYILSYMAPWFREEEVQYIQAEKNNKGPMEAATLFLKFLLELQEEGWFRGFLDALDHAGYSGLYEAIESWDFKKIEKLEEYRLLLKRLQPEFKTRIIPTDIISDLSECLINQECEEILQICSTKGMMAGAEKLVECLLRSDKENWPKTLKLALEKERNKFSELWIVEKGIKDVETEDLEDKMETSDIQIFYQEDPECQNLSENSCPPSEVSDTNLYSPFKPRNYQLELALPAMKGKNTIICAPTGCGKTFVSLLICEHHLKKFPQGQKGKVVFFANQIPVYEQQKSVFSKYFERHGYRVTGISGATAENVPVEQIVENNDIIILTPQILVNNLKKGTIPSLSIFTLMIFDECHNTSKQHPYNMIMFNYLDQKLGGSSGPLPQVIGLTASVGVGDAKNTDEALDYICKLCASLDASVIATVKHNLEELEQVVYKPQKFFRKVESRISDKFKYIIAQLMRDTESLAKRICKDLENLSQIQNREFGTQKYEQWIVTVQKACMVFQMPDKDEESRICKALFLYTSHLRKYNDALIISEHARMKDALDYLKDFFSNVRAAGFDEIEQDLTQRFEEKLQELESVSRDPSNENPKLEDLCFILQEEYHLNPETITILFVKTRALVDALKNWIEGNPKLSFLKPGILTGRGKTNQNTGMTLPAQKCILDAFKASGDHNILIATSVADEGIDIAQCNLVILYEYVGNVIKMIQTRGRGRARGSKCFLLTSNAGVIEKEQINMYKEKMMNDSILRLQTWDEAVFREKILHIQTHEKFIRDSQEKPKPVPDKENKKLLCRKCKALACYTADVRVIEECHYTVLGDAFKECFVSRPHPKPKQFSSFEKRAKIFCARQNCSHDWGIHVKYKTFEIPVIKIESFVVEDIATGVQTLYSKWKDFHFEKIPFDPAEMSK


Target: T1, RIG-I
Assay: competition (fluorescence polarization); 0.5 mM ATP; vs labeled 5' PPP ds39; 50 mM MOPS pH 7.4, 5 mM DTT, 5 mM MgCl2, 0.01% Tween20; 25 C (ATPase, 2 mM ATP; FP, 0.5 mM ATP); EMSA 4 C with 2 mM ATP, 75 nM RIG-I, 25 nM RNA
Conditions: protein: recombinant; tags: none (6xHis-SUMO removed by Ulp1); label: none; single-stranded

| Binder | binding result |
| --- | --- |
| AGUUGGUGGUUGUUGUGUGUUUGUGGUUGGUUUGUUUGG (ssRNA, 5' triphosphate) [5' PPP ss39] | no binding |
| AGUUGGUGGUUGUUGUGUGUUUGUGGUUGGUUUGUUUGG (ssRNA, 5' NAD+ cap) [5' NAD+ ss39] | no binding |
